The values that follow come from patent CN117603358A.

In assay [1] the target is S蛋白, SARS-CoV-2 BA.1 (SARS-CoV-2 BA.1). The experiment in a line: cell-based or functional assay.
Assay [2] addresses S蛋白, SARS-CoV-2 BA.2.75 (SARS-CoV-2 BA.2.75). The experiment in a line: cell-based or functional assay.
In assay [3] the target is S蛋白, SARS-CoV-2 BA.4/5 (SARS-CoV-2 BA.4/5). The experiment in a line: cell-based or functional assay.
The target in assay [4] is S蛋白, SARS-CoV-2 BF.7 (SARS-CoV-2 BF.7). The experiment in a line: cell-based or functional assay.
In assay [5] the target is S蛋白, SARS-CoV-2 BQ.1 (SARS-CoV-2 BQ.1). The experiment in a line: cell-based or functional assay.
Assay [6] deals with S蛋白, SARS-CoV-2 BQ.1.1 (SARS-CoV-2 BQ.1.1). The experiment in a line: cell-based or functional assay.
Assay [7] concerns the target S蛋白, SARS-CoV-2 Delta (SARS-CoV-2 Delta). The experiment in a line: cell-based or functional assay.
Assay [8] has as its target S蛋白, SARS-CoV-2 XBB (SARS-CoV-2 XBB). The experiment in a line: cell-based or functional assay.
Assay [9] has as its target S蛋白, SARS-CoV-2 XBB.1.5 (SARS-CoV-2 XBB.1.5). The experiment in a line: cell-based or functional assay.
In assay [10] the target is SARS-CoV-2(BA.5) Spike RBD (SARS-CoV-2 BA.5). The experiment in a line: SPR (Biacore 8K), antibody captured on Protein A chip, RBD as analyte. In general terms: In SPR one partner is held on a chip, and binding of the other changes the refractive index at the surface.
Assay [11] deals with SARS-CoV-2(BF.7) Spike RBD (SARS-CoV-2 BF.7). The description is as above.

On to LY-CoV1404 (antibody), for which the 假病毒中和活性 IC50 was 1.44 ng/mL in [1]; 25.1 ng/mL in assay [2]; 1.22 ng/mL in assay [3]; 2.14 ng/mL in assay [4]; more than 2000 ng/mL in [5]; more than 2000 ng/mL in assay [6]. The 假病毒中和活性 IC50 in [7] was 3.05 ng/mL; in assay [8], more than 2000 ng/mL; in assay [9], more than 2000 ng/mL. Moreover, the values for the Kd in assay [10] and in [11] were 0.184 nM and 0.162 nM, respectively.
